# From US20190151401A1 (UNIVERSITY OF BRITISH COLUMBIA, published 2019)
# T1: cyclo(CGHHQKG) conjugated to BSA (also: conjugated to BSA)
# T1 construct: HHQK are A-beta residues 13-16; C and G residues are linker; BSA carrier is not written as a chain; also called Cyclo-BSA
# T1 peptide: cyclo(CGHHQKG)
# T2: cyclo(CGQKLVG) conjugated to BSA (also: conjugated to BSA)
# T2 construct: BSA carrier is not written as a chain
# T2 peptide: cyclo(CGQKLVG)
# T3: cyclo(CGHDSGG) conjugated to BSA (also: conjugated to BSA)
# T3 construct: BSA carrier is not written as a chain
# T3 peptide: cyclo(CGHDSGG)
# Legend:
# [1] = biological target: T1, cyclo(CGHHQKG) conjugated to BSA; experiment: ELISA and SPR on peptide-BSA conjugates
# [2] = biological target: T4, A-beta42 oligomers (synthetic, commercially prepared, SynAging SAS) (human); experiment: ProteOn biosensor, antibody captured or amine-coupled on GLM chip, AbO 12.3 nM to 1 uM; approximate kinetic value
# T4 construct: Non-covalent oligomer of A-beta 1-42; also called A-beta oligomer; AbO
# [3] = biological target: T1, cyclo(CGHHQKG) conjugated to BSA; experiment: ProteOn biosensor, antibody amine-coupled on GLH chip, cyclo-BSA 111 pM to 9 nM
# Description: Cyclo-BSA 3-fold dilutions were used from 9 nM to 111 pM. Assay buffer was PBS-E+0.05% Tween+10 mg/ml BSA.
# [4] = biological target: T2, cyclo(CGQKLVG) conjugated to BSA; experiment: ELISA and SPR on peptide-BSA conjugates
# [5] = biological target: T4, A-beta42 oligomers (synthetic, …); experiment: cell-based or functional assay
# [6] = biological target: T3, cyclo(CGHDSGG) conjugated to BSA; experiment: ELISA and SPR on peptide-BSA conjugates
# T4 sequence (peptide, as listed by the source): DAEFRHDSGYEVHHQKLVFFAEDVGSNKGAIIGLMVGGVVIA
binder,measurement,setting,value
"antibody 301-11 (IgG3, kappa), raised against cyclo(CGHHQKG) (antibody, V domains shown, Mouse IgG3/kappa; Entries as printed include the leader peptide) VH: EVQLVESGGGLVKPGGSLKLSCAASGFTFSDYYMYWVRQTPEKRLEWVATISDGGSYTSYPDSVKGRFTISRDNAKNNLYLQMSSLRSEDTAMYYCARDYYGSSSYTSGFAYWGQGTLVTVSA VL: DIVMSQSPSSLAVSTGEKVTMSCKSSQSLLNSRTRKNYLAWYQQKPGQSPKLLIYWASTRESGVPDRFTGSGSGTDFTLTISSVQAEDLAVYYCKQSYNLYTFGGGTKLEIK",binding result,[1],binds
"antibody 301-17 (hybridoma-purified, IgG3, kappa), raised against cyclo(CGHHQKG) (antibody, V domains shown, Mouse IgG3/kappa) VH: QVQLQQPGAELVKPGASVKMSCKASGYSFTSYWINWVKQRPGQGLEWIGDVHPGRGVSTYNAKFKSKATLTLDTSSSTAYMQLSSLTSEDSAVYYCSRSHGNTYWFFDVWGAGTTVTVSS VL: DVLMTQTPLSLPVSLGDQASISCRSSQSIVHSNGNTYLEWYLQKPGQSPKLLIYKVSNRFSGVPDRFSGSGSGTDFTLKISRVEAEDLGVYYCFQGSHVPFTFGSGTKLEIKR",Kd,[2],~26.9 nM
"recombinant 301-17 IgG2a (antibody, V domains shown) VH: QVQLQQPGAELVKPGASVKMSCKASGYSFTSYWINWVKQRPGQGLEWIGDVHPGRGVSTYNAKFKSKATLTLDTSSSTAYMQLSSLTSEDSAVYYCSRSHGNTYWFFDVWGAGTTVTVSS VL: DVLMTQTPLSLPVSLGDQASISCRSSQSIVHSNGNTYLEWYLQKPGQSPKLLIYKVSNRFSGVPDRFSGSGSGTDFTLKISRVEAEDLGVYYCFQGSHVPFTFGSGTKLEIKR",Kd,[3],~0.017 nM
same,Kd,[2],16.2 to 19.5 nM
"antibody 305-59 (IgG1, kappa), raised against cyclo(CGQKLVG) (antibody, V domains shown, Mouse IgG1/kappa; Entries as printed include the leader peptide; also called 59 (5G1)) VH: EVQLQQSGAELVKPGASVKLSCTVSGFNIKDTYVHWVKQRPEQGLEWIGRIAPASGNTKYAPNFQDKATITADTSSNTAYLQLNSLTSEDTAVYYCARHVYWGQGTLVTVSA VL: SIVMTQTPKFLLVSAGDRVTITCKASQSVSNDVVWYQQKPGQSPKLLIYYASNRYTGVPDRFTGSGYGTDFTFTISTVQAEDLAVYFCQQDYISPYTFGGGTKLEIK",binding result,[4],binds
"antibody 305-61 (IgG3, kappa), raised against cyclo(CGQKLVG) (antibody, V domains shown, Mouse IgG3/kappa; Entries as printed include the leader peptide and a few constant-region residues; also called 7E9.1) VH: QVQLQQSGAELVRPGASVTLSCKASGYTFTDYEMHWVKQTPVHGLEWIGAIDPETGDTAYNQEFKGKATLTADKSSSTAYMELRSLTSEDSAVYYCTSPIYYDYDWFAYWGHGTLVTVSA VL: DIVMSQSPSSLAVSAGEKVTMSCKSSQSLLNNRTRKNYLAWYQQKPGQSPKLLIYWASTRESGVPDRFTGSGSGTDFTLTISSVQAEDLAVYYCKQSYNLRTFGGGTKLEIKR",remaining cell viability at a molar ratio of 1:2 (AβO:AB1),[5],80.1 % of control
same,binding result,[4],binds
"antibody 303-25, raised against cyclo(CGHDSGG) (antibody, V domains shown, Mouse, kappa; Entries as printed include the leader peptide) VH: QVQLQQPGAELVRPGASVKLSCKASGYTFTSYWMNWVKQRPGQGLEWIGMIDPSDSQTHYNQMFKDKATLTVDKSSSTAYLQLSSLTSEDSAVYYCSRGGYWGQGTTLTVSS VL: DIQMTQSPSSLSASLGGKVTITCKASQDINNYIAWYQHKPGKGPRQLIYYTSTLQPGIPSRFSGSGSGRDYSFTISDLEPEDIATYYCLQYDNLWTFGGGTKLEIK",remaining cell viability at a molar ratio of 1:2 (AβO:AB1),[5],88.8 % of control
same,binding result,[6],binds
"antibody 305-62 (IgG1, kappa), raised against cyclo(CGQKLVG) (antibody, V domains shown, Mouse IgG1/kappa; Entries as printed include the leader peptide and a few constant-region residues) VH: QVTLKESGPGILKPSQTLSLTCSFSGFSLSTSGMGVGWIRQPSGKGLEWLAHIWWDDDKYYNPSLKSQLTISKDTSRNQVFLKITSVDTADTATYYCARSITTVVATPFDYWGQGTTLTVSS VL: DIVMTQSQKFMSTSVGDRVSITCKASQNVRSAVAWYQQKPGQSPKALIYLASNRHTGVPDRFTGSGSGTDFTLTISNVHSEDLTDYFCLQHWNSPFTFGGGTKLEIKR",binding result,[4],binds
